# Assay results as given in US20190262327A1, “COMBINATION OF A BACE INHIBITOR AND AN ANTIBODY OR ANTIGEN-BINDING FRAGMENT FOR THE TREATMENT OF A DISORDER ASSOCIATED WITH THE ACCUMULATION OF AMYLOID BETA” (ASTRAZENECA AB, priority 2016, published 2019).
# B1: Abet0380-GL IgG1-TM: germlined Abet0380; VH SEQ ID NO: 524, VL SEQ ID NO: 533; human IgG1 triple mutant format (antibody, listed as Homo sapiens, V domains shown)
# VH: EVQLLESGGGLVQPGGSLRLSCAASMGNFNYQTMWWVRQAPGKGLEWVSVIGKTNENIAYADSVKGRFTISRDNSKNTLYLQMNSLRAEDTAVYYCAREWMDHSRPYYYYGMDVWGQGTLVTVSS
# VL: SYELTQPPSVSVSPGQTASITCSGHNLEDKFASWYQQKPGQSPVLVIYRDDKRPSGIPERFSASNSGHTATLTISGTQAMDEADYYCSSQDTVTRVFGGGTKLTVL
# modifications: human IgG1 triple mutant constant region; /note=“Abet0380-GL”
# notes: germlined Abet0380; human IgG1 triple mutant format
# Tests used:
# [1] = target: T1, Amyloid beta 1-42 peptide (Rattus norvegicus, UniProt P08592); experiment: Total Amyloid beta 1-42 peptide in rat brain homogenates (ELISA); format: in vivo; settings: Sprague-Dawley rats, 0.25-10 mg/kg weekly over 14 days
# T1 construct: Measurement of free Amyloid beta 1-42 peptide in rat CSF; from tissue; host or cells: CSF and brain homogenate of Sprague-Dawley rats
# T1 sequence (P08592 672-713 limits assumed): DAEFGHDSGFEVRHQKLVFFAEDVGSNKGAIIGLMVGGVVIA
# Experimental: Eight-week old male albino Harlan Sprague-Dawley rats (n=8-12) received a single dose of Abet0380-GL IgG1-TM antibody by intravenous injection with a dosing vehicle of 25 mM Histidine, 7% Sucrose, 0.02% p80 surfactant, pH 6.0 at 5 ml/kg. Dosing solutions were made just before dosing. Animals were anaesthetized at the time indicated and cerebrospinal fluid (CSF) was aspirated from the cistema magna. CSF samples were centrifuged for 10 minutes at approximately 3000× g at 4° C. within 20 minutes of sampling to remove cells or debris. Samples were then frozen on dry ice and stored at −70° C. for subsequent analysis.
# Animals were sacrificed by decapitation, brain tissue was dissected and Amyloid beta peptides were extracted from brain tissue in diethylamine (DEA; Fluka. Sigma. UK; cat: 31729). Briefly, frozen brain tissue was homogenized in 0.2% DEA and 50 mM NaCl (Merck, USA: cat: 1.06404.1000). Brain homogenates were ultracentrifuged at 133,000×g, for 1 hour. Recovered supernatants were neutralized to pH 8.0 with 2 M Tris-HCl (TRIZMA®-hydrochloride; Sigma, UK; cat: 93363) and stored at −70° C. until analysis. Animal experimentations were performed in accordance with relevant guidelines and regulations provided by the Swedish Board of Agriculture. The ethical permission was provided by an ethical board specialized in animal experimentations: the Stockholm Södra Animal Research Ethical Board.
# Measurement of total (free and Abet0380-GL bound) Amyloid beta 1-42 peptide in rat brain homogenates was performed using modifications of the mouse Amyloid beta (1-42) colorimetric ELISA kit (Invitrogen, UK: cat: KMB3441). […] To stop the reaction, 100 μl of Stop Solution was added to each well and the plate was read within 2 hours at an absorbance of 450 nm. […]
# The ability of antibody Abet0144-GL to sequester amyloid beta 1-42 was investigated in a PK-PD study in normal rats. […] Free and total amyloid beta 1-42 levels were measured using assays described above.
# Aβ1-42 aggregate = target: T2, Aβ1-42 aggregate (Homo sapiens, UniProt P05067); experiment: Western blot of Abeta 42 aggregate preparation (PICUP and non PICUP); format: binding; settings: primary antibody 2 ug/ml; non PICUP and PICUP Aβ42 aggregate
# T2 construct: non-cross-linked A[…] 1-42 aggregate
# T2 sequence (P05067 672-713 limits assumed): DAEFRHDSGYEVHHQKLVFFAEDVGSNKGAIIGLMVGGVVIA
# Experimental: To cross-link the A042 oligomers before SDS-PAGE, PICUP (photo-induced cross-linking of peptides) was carried out as follows. A 1 mM solution of Ru(Bpy) was created by adding 2 μl of stock (at 10 mM) to 18 μl of 1×PBS. In addition, a 20 mM solution of ammonium persulphate (APS) was created by adding […] of stock (at 200 mM) to 18 μl of 1×PBS. Unused stock was immediately snap-frozen on dry ice and returned to the −80° C. freezer. In the dark room, 5 μl of Ru(Bpy) was added to 80 μl of aggregate (neat 10 uM sample), followed by 5 μl of APS. Samples were irradiated with a lamp in the dark room for 10 secs. 30 uls of (4×) LDS Sample buffer was added immediately.
# SDS-PAGE was then performed on cross-linked (PICUP) and non-cross-linked A[…] 1-42 aggregate. The solutions were incubated in a hot block at 70° C. for 10 minutes. Meanwhile, a marker was created by combining 5 μl of Magic Mark XP Western Protein Standard, 5 μl of Novex Sharp Pre-stained Protein Standard. After the ten-minute incubation, the samples plus marker were loaded onto a NuPAGE Novex 4-12% Bis-Tris Gels (1.0 mm, 15 well, 15 μl per well) with MES running buffer. The gels were run at 200 V for 35 minutes. […]
# During the final washes, the chemi-luminescence SuperSignal West Dura substrate (Thermo Scientific; 34075) were allowed to warm to room temperature. […]
molecule,measurement,setting,value
B1,effect on total Amyloid beta 1-42 peptide in brain tissue,[1],dose-dependent increase
same,Abeta42 recognition profile by Western blot,Aβ1-42 aggregate,specifically recognises Aβ1-42 monomer and low n oligomer species up to and including pentamer
